Results on one substance are retold here after doi:10.1101/2025.06.15.659787.

In the assay the target is [2Fe-2S]-bound Mtb-SufU (sulfide transfer protein SufU, Rv1465, of Mycobacterium tuberculosis H37Rv) (Mycobacterium tuberculosis H37Rv) (UniProt O53156). The experiment in a line: SEC-MALS. Background: In gel filtration, larger molecules generally elute earlier.

What is called stoichiometry N is the number of molecules, sites or subunits per partner or assembly. The substance “[2Fe-2S]-bound Mtb-SufU (sulfide transfer protein SufU, Rv1465, of Mycobacterium tuberculosis H37Rv) (from UniProt O53156 1-162) (natural protein)” showed a stoichiometry N of 4.
